Test results reported in patent US11168306 (University of California, dated 2021).
Read-outs that look alike come from different tables or passages of the source. Ends that are not written are not given here. * marks the point of attachment. Butanoyl(4-N3) = [N-]=[N+]=NCCCC(=O)*; Pent4ynoyl = C#CCCC(=O)*

Tests used:
[1] = molecular target: T1, prostate-specific membrane antigen (PSMA), dimeric form (UniProt Q04609 44-750, limits assumed); experiment: phage-based wrapping ELISA, PSMA dimer coated (FIG. 3C)
T1 construct: Purified protein, construct not described; also called dimeric PSMA
T1 sequence (Q04609 44-750 limits assumed): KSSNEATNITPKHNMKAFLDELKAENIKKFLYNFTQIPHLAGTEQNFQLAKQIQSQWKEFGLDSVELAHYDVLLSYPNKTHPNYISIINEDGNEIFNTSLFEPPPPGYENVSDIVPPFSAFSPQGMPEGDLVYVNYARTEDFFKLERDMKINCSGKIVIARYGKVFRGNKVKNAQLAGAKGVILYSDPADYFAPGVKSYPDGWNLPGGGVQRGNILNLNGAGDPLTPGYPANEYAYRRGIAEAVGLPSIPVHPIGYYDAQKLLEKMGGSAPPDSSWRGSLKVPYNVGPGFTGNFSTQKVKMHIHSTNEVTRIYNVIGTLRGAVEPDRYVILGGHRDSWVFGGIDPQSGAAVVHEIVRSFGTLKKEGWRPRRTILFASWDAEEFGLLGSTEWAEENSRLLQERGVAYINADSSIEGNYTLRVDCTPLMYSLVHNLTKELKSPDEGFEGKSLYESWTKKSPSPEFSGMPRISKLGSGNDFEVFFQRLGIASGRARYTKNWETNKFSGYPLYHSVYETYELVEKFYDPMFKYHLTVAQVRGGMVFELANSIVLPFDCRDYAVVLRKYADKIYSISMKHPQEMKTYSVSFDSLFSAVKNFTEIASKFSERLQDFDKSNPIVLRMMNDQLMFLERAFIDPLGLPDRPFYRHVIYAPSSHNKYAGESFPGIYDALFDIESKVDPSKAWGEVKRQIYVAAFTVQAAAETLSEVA
Experimental: (§1) In a phage-based ELISA, specific wells of a 96-well microtiter plate (Nunc Maxisorp) were coated with 100 µL/well of a solution of PSMA (5.56 or 11.1 nM) monomer or dimer protein diluted in PBS. The plate was incubated for 1 h on a shaker at room temperature. The coating solution was removed, and the wells were blocked with 320 µL/well of 0.2% w/v solution of BSA in PBS for 30 min, and washed three times with 300 µL/well of wash buffer PT (0.05% TWEEN-20 in PBS). […] The wells on the ELISA plate were then incubated with the phage samples (100 µL/well) for 1 h. The wells were washed five times with PT and then incubated with horseradish-peroxidase-conjugated anti-M13 antibody (100 µL/well, 1:5000 dilution in PBT) for 30 min. The wells were washed three times with PT, and two times with PBS. […] Following an appropriate incubation time, HRP activity was measured spectrophotometrically at 450 nm using a microtiter plate reader (Bio-Tek).
(§2) Phage-based wrapping ELISA: Phage (5 nM in 225 µL) and 2 µL of the purified cycloaddition reaction product, $KCS$-1/2 (308.7 µM) in water: acetonitrile (60:40), were mixed and serially diluted in PBT. […] Levels of phage binding were quantified as described above.

[2] = molecular target: T2, bovine serum albumin (bovine, UniProt P02769 25-607); experiment: phage-wrapping ELISA on BSA, anti-M13-HRP detection
T2 construct: also called BSA
T2 sequence (P02769 25-607 limits assumed): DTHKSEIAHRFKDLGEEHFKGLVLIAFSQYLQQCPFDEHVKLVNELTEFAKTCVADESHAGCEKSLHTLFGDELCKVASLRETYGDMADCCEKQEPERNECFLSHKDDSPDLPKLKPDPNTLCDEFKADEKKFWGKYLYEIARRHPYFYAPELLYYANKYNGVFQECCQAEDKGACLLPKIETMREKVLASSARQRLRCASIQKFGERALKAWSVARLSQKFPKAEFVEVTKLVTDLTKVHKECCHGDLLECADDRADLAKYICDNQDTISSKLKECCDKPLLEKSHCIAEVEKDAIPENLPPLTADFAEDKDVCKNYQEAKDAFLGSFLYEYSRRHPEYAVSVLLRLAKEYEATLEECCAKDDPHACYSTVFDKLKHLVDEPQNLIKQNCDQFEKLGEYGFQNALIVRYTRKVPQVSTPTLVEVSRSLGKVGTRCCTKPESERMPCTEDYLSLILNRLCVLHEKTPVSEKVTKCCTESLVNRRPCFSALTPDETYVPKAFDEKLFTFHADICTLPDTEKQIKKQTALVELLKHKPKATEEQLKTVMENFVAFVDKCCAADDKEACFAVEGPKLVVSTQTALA

[3] = molecular target: T1, prostate-specific membrane antigen …; experiment: electrochemical impedance spectroscopy, virus-PEDOT film, PBF-TWEEN buffer (FIG. 4F)
[4] = molecular target: T1, prostate-specific membrane antigen …; experiment: electrochemical impedance spectroscopy, virus-PEDOT film, Hill fit of ΔR/Ro against PSMA concentration; phage-2 wrapped with KCS-1
Experimental: (§3) Biosensing with Virus-PEDOT Films. To explore whether these wrapped virus particles could be exploited to create virus-electrode biosensors with a higher sensitivity for PSMA, films of PEDOT were prepared on gold electrodes by electropolymerization in the presence of phage-2 (FIG. 2B). The PEDOT films formed in solution during electropolymerization associate with the negatively charged perchlorate ions from the electrolyte solution as it is deposited onto the gold electrode.[30] Polymerization of EDOT in the presence of negatively charged phage particles leads to incorporation of virus particles into the polymeric film as counterion dopants due to electrostatic interactions.[21] […] SEM imaging confirms incorporation of phage into the bioaffinity matrix; both filament-like and less extended features having dimensions consistent with phage integrated as rope-like bundles into the polymer at various angles to the film (FIGS. 4B-4C) were observed. The $KCS$-1 wrapper was then applied in vitro simply by exposing the resultant phage-2 film for a short time to an aqueous solution of the wrapper. For the biosensing measurements, only the highest affinity ligand combination of phage-2 wrapped with $KCS$-1 was used, and it was studied in comparison to phage-2 films.
(§4) where $Y=\Delta R/R_o$, [L] is the ligand concentration, and n is the Hill coefficient.[31] […]

[5] = molecular target: T3, transferrin receptor (UniProt P02786 89-760, limits assumed); experiment: electrochemical impedance of a virus-PEDOT film in PBF-Tween after exposure to TfR, ΔR/Ro against frequency; concentration not given
T3 construct: Alternative target used as specificity control in impedance sensing; also called TfR
T3 sequence (P02786 89-760 limits assumed): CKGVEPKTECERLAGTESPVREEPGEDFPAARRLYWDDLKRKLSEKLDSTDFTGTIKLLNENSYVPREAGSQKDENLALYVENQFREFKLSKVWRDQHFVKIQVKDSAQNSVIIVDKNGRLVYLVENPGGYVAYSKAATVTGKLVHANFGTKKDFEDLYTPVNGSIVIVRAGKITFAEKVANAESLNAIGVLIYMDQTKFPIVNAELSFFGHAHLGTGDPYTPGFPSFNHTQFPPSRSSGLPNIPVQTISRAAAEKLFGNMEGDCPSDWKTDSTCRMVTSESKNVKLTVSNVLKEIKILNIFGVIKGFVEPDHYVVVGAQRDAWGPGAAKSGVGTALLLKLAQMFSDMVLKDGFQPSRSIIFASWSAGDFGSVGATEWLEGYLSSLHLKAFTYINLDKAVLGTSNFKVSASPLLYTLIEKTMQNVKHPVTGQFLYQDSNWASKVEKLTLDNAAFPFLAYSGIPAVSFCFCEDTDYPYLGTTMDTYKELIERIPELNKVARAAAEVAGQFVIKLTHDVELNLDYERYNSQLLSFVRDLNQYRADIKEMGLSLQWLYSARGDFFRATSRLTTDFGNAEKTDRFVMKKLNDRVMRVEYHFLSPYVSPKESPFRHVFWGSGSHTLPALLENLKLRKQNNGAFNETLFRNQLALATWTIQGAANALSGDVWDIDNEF

[6] = molecular target: T1, prostate-specific membrane antigen …; experiment: phage-based wrapping ELISA, PSMA dimer coated (FIG. 3A)
Experimental: as §1, §2

[7] = molecular target: T2, bovine serum albumin; experiment: phage-wrapping ELISA on BSA, anti-M13-HRP detection; remark: listed apart in the source
[8] = molecular target: T2, bovine serum albumin; experiment: phage ELISA on BSA, anti-M13-HRP detection
[9] = molecular target: T1, prostate-specific membrane antigen …; experiment: phage ELISA, PSMA dimer coated on the plate, [PSMA] = 11.1 nM, phage titrated, anti-M13-HRP detection
Experimental: (§5) In a phage-based ELISA, specific wells of a 96-well microtiter plate (Nunc Maxisorp) were coated with 100 µL/well of a solution of PSMA (5.56 or 11.1 nM) monomer or dimer protein diluted in PBS. The plate was incubated for 1 h on a shaker at room temperature. The coating solution was removed, and the wells were blocked with 320 µL/well of 0.2% w/v solution of BSA in PBS for 30 min, and washed three times with 300 µL/well of wash buffer PT (0.05% TWEEN-20 in PBS). […] The wells on the ELISA plate were then incubated with the phage samples (100 µL/well) for 1 h. The wells were washed five times with PT and then incubated with horseradish-peroxidase-conjugated anti-M13 antibody (100 µL/well, 1:5000 dilution in PBT) for 30 min. The wells were washed three times with PT, and two times with PBS. The plate was then developed by incubating with HRP substrate solution (100 µL/well; 1 mg/mL o-phenylenediamine dihydrochloride and 0.02% w/v H_2O_2) in citric acid buffer (50 mM citric acid, 50 mM Na_2HPO_4, pH 5.0). Following an appropriate incubation time, HRP activity was measured spectrophotometrically at 450 nm using a microtiter plate reader (Bio-Tek).

[10] = molecular target: T1, prostate-specific membrane antigen …; experiment: electrochemical impedance spectroscopy, virus-PEDOT film, Hill fit of ΔR/Ro against PSMA concentration; phage-2 alone, not wrapped with KCS-1
Experimental: as §3, §4

[11] = molecular target: T4, PSMA on the surface of LNCaP cells (human, UniProt Q04609 1-750); experiment: cell-based phage ELISA on fixed LNCaP cells, anti-M13-HRP detection, HRP activity as fold change
T4 construct: whole, on cells; Cells were glutaraldehyde-fixed on the plate in the cell-based ELISA and in suspension in the sandwich ELISA; also called cell surface PSMA; PSMA on LNCaP cells
T4 sequence (Q04609 whole entry): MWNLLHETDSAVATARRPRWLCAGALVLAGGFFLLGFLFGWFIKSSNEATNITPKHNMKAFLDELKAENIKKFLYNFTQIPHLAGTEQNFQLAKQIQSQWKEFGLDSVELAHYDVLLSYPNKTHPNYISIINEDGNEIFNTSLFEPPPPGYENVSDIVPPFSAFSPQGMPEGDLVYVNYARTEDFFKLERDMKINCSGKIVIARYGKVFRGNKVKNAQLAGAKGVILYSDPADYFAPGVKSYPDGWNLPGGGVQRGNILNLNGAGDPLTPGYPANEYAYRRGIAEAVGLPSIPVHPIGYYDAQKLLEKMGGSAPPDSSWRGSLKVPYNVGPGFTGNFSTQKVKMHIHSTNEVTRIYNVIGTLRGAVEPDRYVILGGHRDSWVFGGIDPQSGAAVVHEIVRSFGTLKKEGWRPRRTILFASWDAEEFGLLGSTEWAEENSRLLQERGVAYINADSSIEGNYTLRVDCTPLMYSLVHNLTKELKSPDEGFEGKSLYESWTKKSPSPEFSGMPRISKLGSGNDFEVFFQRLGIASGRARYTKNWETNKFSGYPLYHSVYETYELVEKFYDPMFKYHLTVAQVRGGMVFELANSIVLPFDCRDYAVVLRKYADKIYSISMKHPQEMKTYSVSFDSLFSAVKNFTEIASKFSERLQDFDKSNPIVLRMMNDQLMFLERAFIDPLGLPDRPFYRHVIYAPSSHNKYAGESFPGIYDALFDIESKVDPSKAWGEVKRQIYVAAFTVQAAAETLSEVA

[12] = molecular target: T4, PSMA on the surface of LNCaP cells; experiment: as above; remark: listed apart in the source
[13] = molecular target: T5, prostate-specific membrane antigen (PSMA), monomeric form (UniProt Q04609 44-750, limits assumed); experiment: phage ELISA, PSMA monomer coated on the plate, [PSMA] = 11.1 nM, anti-M13-HRP detection
T5 construct: Purified protein coated on the ELISA plate; construct not described
T5 sequence (Q04609 44-750 limits assumed): as the sequence (Q04609 44-750 limits assumed) above
Experimental: as §5

[14] = molecular target: T1, prostate-specific membrane antigen …; experiment: electrochemical impedance of a virus-PEDOT film in PBF-Tween after exposure to PSMA, ΔR/Ro against frequency; concentration not given
[15] = molecular target: T1, prostate-specific membrane antigen …; experiment: phage ELISA, PSMA coated on the plate, [PSMA] = 13 nM, anti-M13-HRP detection

B1: phage-2 wrapped with KCS-1 (peptide)
chain: SECVEVFQNSCDW
peptide 1: Pent4ynoyl-KKKKKKKKKKKKKK-NH2
peptide 2: {Butanoyl(4-N3)}-KKKCALCEFLG-NH2
modifications: not fully specified; cysteine pairing not given here; also: KCS-1 wrapper held on P8 coat electrostatically, triazole to a chain's N-terminus
notes: Whole M13 virion (free in ELISA, embedded in a PEDOT film for impedance sensing); the KCS-1 wrapper is held on the P8 coat electrostatically; also called Phage-2 film wrapped with KCS-1; not shown: M13 major coat protein P8, 50 amino acid residues; NCBI GI:402239556 named in an embodiment
In the case of B1, the “fold higher apparent affinity than phage-2 wrapped with KCS-2” value [1] is reported as 4 fold, the binding result [2] is reported as “no binding (tested: 5 nM)” and the “fold ΔR/Ro relative to films with unwrapped phage-2” value [3] is reported as 3 fold. For the same binder, the Kd [4] was 33 nM and the binding result [5] was “no binding”.

B2: phage-2 wrapped with KCS-2 (peptide)
chain: SECVEVFQNSCDW
peptide 1: Pent4ynoyl-KKKKKKKKKKKKKK-NH2
peptide 2: {Butanoyl(4-N3)}-KKKSECVEVFQNSCDW-NH2
modifications: not fully specified; cysteine pairing not given here; also: KCS-2 wrapper held on P8 coat electrostatically, triazole to a chain's N-terminus
notes: Whole M13 virion; the KCS-2 wrapper (K14 clicked to K3-ligand 2) is held on the P8 coat electrostatically, not covalently; also called Phage with chemically and genetically encoded ligands; not shown: M13 major coat protein P8, 50 amino acid residues; NCBI GI:402239556 named in an embodiment
With B2 the “fold higher affinity than phage-2 without the ligand wrapper” value [6] was roughly 50 fold and the binding result [7] was “no binding (tested: 5 nM)”.

B3: phage-2 (M13 phage displaying PSMA ligand 2 as a fusion to P8) (peptide)
chain: SECVEVFQNSCDW
modifications: not fully specified; cysteine pairing not given here; also: displayed on M13 phage as fusion to P8 coat protein
notes: Whole M13 virion in the assay (free in ELISA, embedded in a PEDOT film for impedance sensing); also called peptide 2; peptide-2; not shown: M13 major coat protein P8, 50 amino acid residues; NCBI GI:402239556 named in an embodiment
For B3, the binding result [8] was “no binding (tested: 5 nM)”, the “EC50 (read off the curve)” value [9] was roughly 0.008 nM and the Kd [10] was 54 nM.

B4: phage wrapped with P100NSP-2 (peptide)
peptide 1: SECVEVFQNSCDW
peptide 2: KKKKKKKKKKKKKKC
chain: AEGDDPAKAAFNSLQASATEYIGYAWAMVVVIVGATIGIKLFKKFTSKAS
modifications: Cys thiol joined to the maleimide of the PEG100 ligand; C-terminal carboxamide; N-terminal azide clicked to pentynoic acid, then HBTU-coupled non-specifically (carboxylates incl. side chains, Asp12 may be partly modified) to Mal-PEG100-NH2; C-terminal carboxamide
notes: mature; Whole M13 virion; K14-Cys held electrostatically on P8
B4: binds [11].

B5: phage wrapped with P100NSP-P4-2 (peptide)
peptide 1: SECVEVFQNSCDW
peptide 2: KKKKKKKKKKKKKKC
chain: B4 chain
modifications: Cys thiol joined to the maleimide of the PEG100 ligand; C-terminal carboxamide; N-terminal azido-PEG4-carboxylic acid, clicked to pentynoic acid, then HBTU-coupled non-specifically to Mal-PEG100-NH2; C-terminal carboxamide
notes: as for B4
B5: binds [12].

AEGDDPAKAAFNSLQASATEYIGYAWAMVVVIVGATIGIKLFKKFTSKAS (other, M13 bacteriophage, UniProt P69541 24-73, looked up, not fully specified, mature; also called control phage) [Stop-4 phage (phagemid packaged by helper phage, no ligand displayed)]: no binding (tested: last point just right of the 10 nM tick) [13]; no binding [14].

B6: phage wrapped with P100SP-P4-2 (peptide)
peptide 1: SECVEVFQNSCDW
peptide 2: KKKKKKKKKKKKKKC
chain: B4 chain
modifications: Cys thiol joined to the maleimide of the PEG100 ligand; C-terminal carboxamide; N-terminal azido-PEG4-carboxylic acid, clicked to Mal-PEG100-alkyne (specific attachment); C-terminal carboxamide
notes: as for B4
B6: binds [12].

B7: phage wrapped with P100SP-2 (peptide)
peptide 1: SECVEVFQNSCDW
peptide 2: KKKKKKKKKKKKKKC
chain: B4 chain
modifications: Cys thiol joined to the maleimide of the PEG100 ligand; C-terminal carboxamide; N-terminal azide clicked to Mal-PEG100-alkyne (specific attachment); C-terminal carboxamide
notes: as for B4
B7: binds [12].

B8: KO7 helper phage (other, M13 bacteriophage, UniProt P69541 24-73, looked up)
chain: B4 chain
notes: mature; Helper phage lacking a genetically encoded PSMA ligand; bought from GE Healthcare
B8: no binding (tested: about 5 nM) [15].

B9: phage-2 wrapped with a 1:1 (w/w) mixture of KCS-2 and KCS-1 (peptide)
chain: SECVEVFQNSCDW
peptide 1: Pent4ynoyl-KKKKKKKKKKKKKK-NH2
peptide 2: {Butanoyl(4-N3)}-KKKCALCEFLG-NH2
peptide 3: {Butanoyl(4-N3)}-KKKSECVEVFQNSCDW-NH2
modifications: cysteine pairing not given here; also: K14 chains clicked to ligand chains, triazole to a chain's N-terminus
notes: Whole M13 virion with both wrappers held electrostatically on the coat; also called 1:1 mixture of KCS-1 and KCS-2 wrapped on the surface of phage-2; not shown: M13 major coat protein P8, 50 amino acid residues; NCBI GI:402239556 named in an embodiment
B9: no binding (tested: 5 nM) [2].
